Experimental data from paper PMC3655262.
Where a chain is given by its changes, count along the chain named. Like-named read-outs stand apart in the source and are kept apart here.

T1: hZFP57zf3-4E273A (Homo sapiens, UniProt Q9NU63-3 227-287, C232F;E273A)
T1 sequence: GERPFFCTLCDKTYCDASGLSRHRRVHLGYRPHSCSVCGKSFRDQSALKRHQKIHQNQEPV

T2: hZFP57zf3-4 (C232F) (Homo sapiens, UniProt Q9NU63-3 227-287, C232F)
T2 sequence: T1 sequence with A47E

T3: hZFP57zf1-4 (Homo sapiens, UniProt Q9NU63-3 172-287)
T3 sequence: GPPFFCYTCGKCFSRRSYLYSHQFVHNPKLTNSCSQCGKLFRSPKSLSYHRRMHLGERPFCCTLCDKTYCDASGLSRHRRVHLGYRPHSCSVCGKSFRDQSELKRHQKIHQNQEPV

B1: TGCmetCGC probe (both strands methylated) (dsDNA)
DNA 1: GTAATATTGCCGCAGTAATA
DNA 2: TATTACTGCGGCAATATTAC
modifications: 5-methylcytosine at C11 of strand 1 and C9 of strand 2
B2: TGCCGC unmethylated probe (dsDNA)
DNA 1: GTAATATTGCCGCAGTAATA
DNA 2: TATTACTGCGGCAATATTAC

Key:
Assay in all cases: EMSA
hZFP57zf3-4E273A [1] = target: T1, hZFP57zf3-4E273A
hZFP57zf3-4 (C232F) = target: T2, hZFP57zf3-4 (C232F)
hZFP57zf1-4 = target: T3, hZFP57zf1-4
hZFP57zf3-4E273A [2] = target: T1, hZFP57zf3-4E273A; remark: listed apart in the source

Binder	binding result (hZFP57zf3-4E273A [1])	binding result (hZFP57zf3-4 (C232F))	binding result (hZFP57zf1-4)	binding result (hZFP57zf3-4E273A [2])
B1	binds	binds	binds	
B2				binds
